From paper PMC2114230

Tests used:
[1] = biological target: actin filaments of rabbit skeletal muscle actin (rabbit) (UniProt P68135); experiment: co-sedimentation
[2] = biological target: microtubules of rat brain tubulin (rat) (UniProt P68370); experiment: co-sedimentation

Row | percent of total 255-kD protein sedimented [1] | percent of total axolinin sedimented [2] | Substance
1 | 62% | – | 255-kD protein of squid giant axon (natural protein)
2 | – | 70% | axolinin (260-kD protein) of squid giant axon (natural protein)
